How the values were obtained:
[1] = tested on: platelet-derived biomarkers; assay: ASSENT-2 platelet substudy: ELISA of platelet-derived biomarkers in plasma of AMI patients; type: in vivo, human
Experimental: Forty-one patients with ST-segment elevation AMI enrolled in a single ASSENT-2 site (Rashid Hospital, Dubai, United Arab Emirates) were studied. The inclusion and exclusion criteria of ASSENT-2 have been previously reported ([no authors listed] (1999) Lancet 354:716-722). Briefly, patients included in the trial were between 18 and 70 years of age and were seen within 6 hours of symptom onset with >30 minutes of continuous symptoms. […] After informed consent was obtained, 7 serum samples were drawn. Samples were collected at baseline and at 30-minute intervals during a 180-minute period. Within 15 minutes of sample acquisition, plasma was separated by centrifugation at 800 g for 10 minutes, aspirated, placed in vials, and snapped frozen at −20° C.
Enzyme-linked immunosorbent assay (ELISA) was used according to standard sandwich techniques for CD 31 (sPECAM-1), sVACAM-1, sP-selectin, (R&D Systems Inc. Minneapolis, Minn.), beta-thromboglobulin, Asserachrom® (Diagnostica Stago Inc., Parsippany, N.J.), platelet factor 4 Asserachrom®, thromboxane, and prostacyclin (Cayman Chemical Co., MI). Each sample was measured in duplicate, and the overall intra-assay coefficient of variation was between 3.1%±0.4% and 7.6%±1.0%, with a plasma recovery rate between 89.7% and 98.7%.
(§1) For all comparisons, statistical analyses were done by using repeated measures ANOVA. Post hoc comparison was performed by use of the Bonferroni t-test to identify specific differences in platelet aggregation and receptor expression between patients treated with TNK and t-PA, and controls. The Mann-Whitney U test was used to analyze non-parametric data. Normally distributed data were expressed as mean±SE, and skewed data as median (range). Probability values of P<0.05 were regarded as statistically significant. Linear regression analysis was applied to normally distributed data for all study participants by using the Statview 4.1 program for analysis.
In the ASSENT-2 Platelet Substudy, 21 of the 41 patients enrolled received TNK (30-50 mg), while the remaining 20 received t-PA (40-85 mg). There were no substantial differences in baseline characteristics for the AMI patients.

platelets [2] = assay: rapid platelet-function assay (Ultegra); type: cell-based, human; conditions: TNK 12 μg/mL, t-PA 4 μg/mL
Experimental: (§2) Blood samples for the in vitro study were obtained from 9 healthy volunteers. None of the subjects smoked or had hypertension, diabetes, or an abnormal hematocrit. None had received aspirin or any other antiplatelet drugs. All subjects underwent blood sampling after at least 30 minutes of rest and 2 or more hours of fasting. Blood was drawn from an antecubital vein between 8 am and 10 am in order to avoid any diurnal influence. A 21-gauge butterfly needle was used to draw blood into a tube containing 3.8% sodium citrate (1:9 volume); the first 1.5 mL of free running blood was discarded. One tube was kept as an internal control. A second tube was incubated with tenecteplase (TNK) for 30 minutes at room temperature in order to achieve a final concentration of 12 μg/mL. The third tube was similarly incubated with alteplase (t-PA) to achieve a concentration of 4 μg/mL. The concentrations of TNK and t-PA that were chosen approximated conventional plasma levels observed in patients receiving TNK and t-PA bolus (30 mg, and 15 mg, respectively; data on file, Genentech, Inc., South San Francisco, Calif.). Fresh solutions of TNK and t-PA were prepared in Dulbecco's phosphate buffered saline (DPBS) ex tempore on the morning of the platelet studies.
With rapid platelet-function assay (RPFA (Ultegra®); Accumetrics, Inc., San Diego, Calif.), polystyrene beads coated with fibrinogen are placed in a cartridge along with a peptide that activates the thrombin receptor. A whole blood citrate mixture is added to the cartridge, and agglutination between platelets and coated beads is recorded. The data mirror turbidometric platelet aggregation and reflect the degree of platelet glycoprotein IIb/IIIa blockade.
For all comparisons, statistical analyses were done by using repeated measures ANOVA. Post hoc comparison was performed by use of the Bonferroni t-test to identify specific differences in platelet aggregation and receptor expression between patients treated with TNK and t-PA, and controls. […] Normally distributed data were expressed as mean±SE, and skewed data as median (range). […]

platelets [3] = assay: in vitro comparison of TNK versus t-PA on platelet activation and surface receptor expression (15 parameters); type: cell-based, human; conditions: TNK 12 μg/mL, t-PA 4 μg/mL, 30 minutes
Experimental: (§3) Blood samples for the in vitro study were obtained from 9 healthy volunteers. None of the subjects smoked or had hypertension, diabetes, or an abnormal hematocrit. None had received aspirin or any other antiplatelet drugs. All subjects underwent blood sampling after at least 30 minutes of rest and 2 or more hours of fasting. Blood was drawn from an antecubital vein between 8 am and 10 am in order to avoid any diurnal influence. A 21-gauge butterfly needle was used to draw blood into a tube containing 3.8% sodium citrate (1:9 volume); the first 1.5 mL of free running blood was discarded. One tube was kept as an internal control. A second tube was incubated with tenecteplase (TNK) for 30 minutes at room temperature in order to achieve a final concentration of 12 μg/mL. […]
For the platelet aggregation (PA) studies, platelet-rich plasma (PRP) was first isolated. […] Platelet counts were determined for each PRP sample with a Coulter Counter ZM (Coulter Co., Hialeah, Fla.). […] Platelet aggregation was determined by using a 4 channel Chrono-log Lumi-Aggregometer (model 560-Ca) and expressed as the maximum percentage of light transmittance change (% max) from the baseline at the end of the recording time. […] Platelet aggregability curves were recorded for 6 minutes and analyzed according to internationally established standards (see, e.g., Ruggeri, Z. M. (1994) Semin. Hemat. 31:229-239). […]

platelets [4] = assay: PFA-100 platelet function analyzer, closure time; type: cell-based, human; conditions: TNK 12 μg/mL, t-PA 4 μg/mL
Experimental: as §2
The PFA-100™ (Dade Behring, Deerfield, Ill.) is a high shear-inducing platelet function analyzer that simulates primary hemostasis after injury to a small vessel under flow conditions (see, e.g. Kundu, S. K. et al. (1996) Clin. Appl. Thromb. Hemost. 2:241-249). The device provides a constant negative pressure that aspirates a whole blood-citrate mixture, which comes into contact with a collagen-coated membrane and then passes through an aperture. The time required to obtain occlusion of the aperture is digitally recorded and is a measure of shear-induced platelet aggregation.
(§4) For all comparisons, statistical analyses were done by using repeated measures ANOVA. […] Normally distributed data were expressed as mean±SE, and skewed data as median (range). […]

platelets [5] = assay: in vitro whole blood flow cytometry of platelet receptors and platelet-monocyte aggregates; type: cell-based, human; conditions: TNK 12 μg/mL, t-PA 4 μg/mL
Experimental: as §2
The surface expression of platelet receptors was determined by flow cytometry by using the following monoclonal antibodies: CD 41 (glycoprotein [GP] IIb/IIIa, α IIbβ3) CD 42b (GP Ib), CD 62p (P-selectin), CD 51/CD 61 (αvβ3, or vitronectin receptor), CD 31 (platelet endothelial cell adhesion molecule [PECAM]-1), CD 107a (LAMP-1), CD 107b (LAMP-2), CD 63 (LIMP or LAMP-3), and CD 151 (PETA-3) (PharMingen, San Diego, Calif.). Platelet-leukocyte interactions were assessed by using dual antibodies for a pan-platelet marker (CD 41), together with CD 14, a monocyte/macrophage marker. The blood-citrate mixture (50 μl) was diluted with 450 μl Tris buffered saline (TBS) (10 mmol/L Tris, 0.15 mol/L sodium chloride) and mixed by gently inverting an Eppendorf tube 2 times. The corresponding antibody was then added (5 μl) and incubated at 4° C. for 30 minutes. After incubation, 400 μl of 2% buffered paraformaldehyde was added for fixation. The samples were analyzed on a Becton Dickinson FACScan flow cytometer set up to measure fluorescent light scatter, as previously described. All parameters were collected by using 4-decade logarithmic amplification. The data were collected in list mode files and then analyzed. P-selectin was expressed as percent positive cells. Other antigens were expressed as log mean fluorescence intensity.
as §1

platelets [6] = assay: in vitro whole blood aggregometry (impedance); type: cell-based, human; conditions: 5 μg/mL collagen; TNK 12 μg/mL, t-PA 4 μg/mL
Experimental: as §3
Whole blood samples were prepared as follows: whole blood citrate mixture was diluted 1:1 with 0.5 mL Tyrode's buffer solution, then swirled gently. […] Platelet aggregability was expressed as the change in electrical impedance and is expressed in ohms. Aggregation curves were recorded for 6 minutes and analyzed by use of Aggrolink® software (Chrono-log Corporation).
as §4

B1: TNK: form of tissue plasminogen activator, thrombolytic agent (Genentech) (protein, UniProt P00750 36-562, looked up, variant T103N N117Q K296A H297A R298A R299A)
Tissue-type plasminogen …: SYQVICRDEKTQMIYQQHQSWLRPVLRSNRVEYCWCNSGRAQCHSVPVKSCSEPRCFNGGTCQQALYFSDFVCQCPEGFAGKCCEIDTRATCYEDQGISYRGNWSTAESGAECTNWQSSALAQKPYSGRRPDAIRLGLGNHNYCRNPDRDSKPWCYVFKAGKYSSEFCSTPACSEGNSDCYFGNGSAYRGTHSLTESGASCLPWNSMILIGKVYTAQNPSAQALGLGKHNYCRNPDGDAKPWCHVLKNRRLTWEYCDVPSCSTCGLRQYSQPQFRIKGGLFADIASHPWQAAIFAAAAASPGERFLCGGILISSCWILSAAHCFQERFPPHHLTVILGRTYRVVPGEEEQKFEVEKYIVHKEFDDDTYDNDIALLQLKSDSSRCAQESSVVRTVCLPPADLQLPDWTECELSGYGKHEALSPFYSERLKEAHVRLYPSSRCTSQHLLNRTVTDNMLCAGDTRSGGPQANLHDACQGDSGGPLVCLNDGRMTLVGIISWGLGCGQKDVPGVYTKVTNYLDWIRDNMRP
For B1, the P-selectin plasma concentrations ([1]; 30-60 minutes) was “immediate increase”, the P-selectin plasma concentrations ([1]; 120-150 minutes) was “significant decrease” and the P-selectin plasma concentrations ([1]; 180 minutes) was “rebound”. For the same molecule, the “plasma levels of PECAM-1” value ([1]; AMI patients after thrombolysis) was “significantly inhibited”, the “release of substances from platelets (plasma biomarkers)” value ([1]; TNK 30-50 mg, t-PA 40-85 mg, 180-minute period) was “decreased release” and the “vascular cell adhesion molecule-1 (VCAM-1) release” value ([1]; after 90 minutes) was “inhibited significantly”. The “inhibition of thromboxane formation, TNK versus t-PA” value ([1]; human, in vivo) was “significantly stronger”, the “pattern of prostacyclin release, between the agents” value ([1]; human, in vivo) was “very similar” and the “plasma concentrations of prostacyclin” value ([1]; human, in vivo) was “significant and early decrease”. For the same molecule, the “plasma concentrations of thromboxane” value ([1]; human, in vivo) was “significant and early decrease”, the “prevention of platelet activation, TNK versus t-PA group” value ([1]; human, in vivo) was “stronger prevention of platelet activation” and the “platelet activation units (Ultegra) compared with DPBS” value (platelets [2]) was “reduction”. For the same molecule, the “platelet activation with the Ultegra analyzer, TNK versus t-PA samples” value (platelets [2]) was “statistically significant decrease”, the “platelet function, 10 of 15 parameters, compared with baseline DPBS values” (platelets [3]) was “diminished platelet function” and the “closure time (PFA-100) compared with DPBS” value (platelets [4]) was “prolongation”. For the same molecule, the “closure time with the ADP/collagen cartridge (PFA-100), TNK versus t-PA samples” value (platelets [4]) was “extension”, the “CD 151 expression, TNK versus t-PA samples” value (platelets [5]) was “Significant reduction” and the “PECAM-1 expression, TNK versus t-PA samples” value (platelets [5]) was “Significant reduction”. The “expression of PECAM-1 compared with saline-treated samples” value (platelets [5]) was “trend toward diminished expression”, the “expression of glycoprotein IIb/IIIa compared with saline-treated samples” value (platelets [5]) was “reduced expression” and the “formation of platelet-monocyte aggregates compared with saline-treated samples” value (platelets [5]) was “trend toward diminished”. The “formation of platelet-monocyte aggregates, TNK versus t-PA” value (platelets [5]) was “lower”, the “glycoprotein IIb/IIIa expression, TNK versus t-PA samples” value (platelets [5]) was “Significant reduction” and the “vitronectin receptor expression, TNK versus t-PA samples” value (platelets [5]) was “Significant reduction”. For the same molecule, the “whole blood aggregometry, TNK versus t-PA samples” value (platelets [6]) was “statistically significant decrease”.

From patent publication US20030180282A1, “Method of treatment of thrombotic events” (priority 2002, published 2003)
